Data as given in patent US20210395318A1 (Molecular Partners, published 2021).

Target: T1, human FAP (recombinant) (human, UniProt Q12884 26-760)
T1 construct: also called hFAP; rhFAP
T1 sequence: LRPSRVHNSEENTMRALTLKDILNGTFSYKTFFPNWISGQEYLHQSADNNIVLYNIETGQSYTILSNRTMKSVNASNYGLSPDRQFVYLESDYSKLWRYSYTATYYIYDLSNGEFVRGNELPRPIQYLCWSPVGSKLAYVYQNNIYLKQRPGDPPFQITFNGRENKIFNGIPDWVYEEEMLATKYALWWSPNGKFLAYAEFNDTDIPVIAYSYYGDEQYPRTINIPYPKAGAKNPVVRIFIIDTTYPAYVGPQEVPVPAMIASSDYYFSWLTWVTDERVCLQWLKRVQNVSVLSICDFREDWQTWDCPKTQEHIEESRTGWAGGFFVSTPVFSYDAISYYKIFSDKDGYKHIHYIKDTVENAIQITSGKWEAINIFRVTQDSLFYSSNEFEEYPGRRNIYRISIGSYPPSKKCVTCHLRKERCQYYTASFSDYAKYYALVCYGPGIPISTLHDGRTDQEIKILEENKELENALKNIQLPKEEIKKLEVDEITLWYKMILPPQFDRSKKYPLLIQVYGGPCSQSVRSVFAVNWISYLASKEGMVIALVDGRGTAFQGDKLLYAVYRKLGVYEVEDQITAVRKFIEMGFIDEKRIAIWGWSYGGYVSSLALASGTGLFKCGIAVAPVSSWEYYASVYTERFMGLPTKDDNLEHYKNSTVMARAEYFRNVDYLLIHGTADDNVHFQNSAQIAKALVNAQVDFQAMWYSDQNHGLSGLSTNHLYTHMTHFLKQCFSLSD
Test: SPR (ProteOn XPR36), FAP immobilized on GLC chip, Protein #5 as analyte, PBST, 1:1 Langmuir
Method: All SPR measurements were performed using a ProteOn XPR36 instrument (BioRad) and a running buffer of PBS pH 7.4 containing 0.005% Tween 20® (PBST). The 1:1 Langmuir model was used for the fitting of SPR traces.
ProteOn setup for Protein #5 binding to FAP of different species. hFAP, cynomolgus FAP (cFAP) and mouse FAP (mFAP) were immobilized on a GLC chip (BioRad) in 10 mM Na Acetate buffer pH5.3 to a level of 1200 RU, 800 RU and 2000 RU, respectively. The interaction of FAP and Protein #5 was measured by applying Protein #5 in a serial dilution of […] and 3.13 nM with an association of 120 s and dissociation of 1800 s using a constant flow of 100 μl/min. The targets were regenerated using 10 mM glycine pH 2 and 124 mM H₃PO₄. The signals were double referenced against the PBST treated control lanes.

- Kd: 0.307 nM
- koff: 0.000126 s⁻¹
- kon: 409000 M⁻¹ s⁻¹
B1: DARPin Protein #5 (designed binder)
chain: GSDLGKKLLEAARAGQDDEVRELLKAGADVNAKDYFSHTPLHLAARNGHLKIVEVLLKAGADVNAKDFAGKTPLHLAAADGHLEIVEVLLKAGADVNAQDIFGKTPADIAADAGHEDIAEVLQKAAGSPTPTPTTPTPTPTTPTPTPTGSDLGKKLLEAARAGQDDEVRILLAAGADVNAKDVLGWTPLHLAAFEGHLEIVEVLLKAGADVNAKDKKGWTPLQLAARTGHLEIVEVLLKAGADVNAKDHIGATPLHLAAWQGHPEIVEVLLKAGADVNAQDKSGKTPADLAADAGHEDIAEVLQKAAGSPTPTPTTPTPTPTTPTPTPTGSDLGKKLLQAARAGQLDEVRELLKAGADVNAKDTWGFTPLHIAAESGHLEIVEVLLKAGADVNAKDVQGRTPLHIAAHSGHLEIVEVLLKAGADVNAKDFRGWTPLHLAAWSGHLEIVEILLKAGADVNAQDKSGKTPADLAARAGHQDIAEVLQKAAGSPTPTPTTPTPTPTTPTPTPTGSDLGKKLLQAARAGQLDEVRELLKAGADVNAKDTWGFTPLHIAAESGHLEIVEVLLKAGADVNAKDVQGRTPLHIAAHSGHLEIVEVLLKAGADVNAKDFRGWTPLHLAAWSGHLEIVEILLKAGADVNAQDKSGKTPADLAARAGHQDIAEVLQKAA
notes: also called SMA136; Molecule No. 1
